From paper PMC5432305, “Fungal lectin MpL enables entry of protein drugs into cancer cells and their subcellular targeting” (Oncotarget, 2017) come the findings set out here.

For experiment [1], the target named is T1, Papain (UniProt P00784 134-345).
T1 construct: also called cysteine peptidase papain; cysteine protease papain; source: bought: Sigma
T1 sequence (looked up): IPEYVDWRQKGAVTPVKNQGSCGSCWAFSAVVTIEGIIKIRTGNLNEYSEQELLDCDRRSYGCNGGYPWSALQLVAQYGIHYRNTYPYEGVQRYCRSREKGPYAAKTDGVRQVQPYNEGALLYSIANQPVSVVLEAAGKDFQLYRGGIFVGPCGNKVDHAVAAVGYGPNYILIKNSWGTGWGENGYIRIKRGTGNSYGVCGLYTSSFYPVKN
The experiment in a line: enzyme inhibition kinetics (Ki, Henderson equation for tight binding competitive inhibitors); papain 2.6 nM, different concentrations of inhibitor proteins, 0.1 M MES, 5 mM DTT, 0.1 mM Z-Phe-Arg-AMC, pH 6.5, 25°C, fluorescence 370/460 nm. Particulars: both partners purified.

In experiment [2] the target is T2, Papain (UniProt P00784 134-345).
T2 chain: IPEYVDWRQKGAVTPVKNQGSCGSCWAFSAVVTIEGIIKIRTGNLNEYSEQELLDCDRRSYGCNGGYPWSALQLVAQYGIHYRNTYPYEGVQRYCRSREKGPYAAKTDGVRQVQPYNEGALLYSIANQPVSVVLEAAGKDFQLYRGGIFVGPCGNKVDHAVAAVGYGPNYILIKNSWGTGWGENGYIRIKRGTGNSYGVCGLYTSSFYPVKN

B1: Recombinant clitocypin (Clt) (natural protein, UniProt Q3Y9I6 1-152, looked up)
chain: MASLEDGTYRLRAVTTSNPDPGVGGEYATVEGARQPVKAEPSTPPFFERQIWQVTRNSDGQSTIKYQGLNAPFEYGFSYDQLEQNAPVIAGDPKEYILQLVPSTTDVYIIRAPIQRVGVDVEVGVQGNNLVYKFFPVDGSGGDRPAWRFTRE
notes: also called rClt; unlinked Clt; source: E. coli, purified as described [19]
For orientation: Ki means a measure of affinity in units of concentration, obtained from inhibition or displacement. Read a high Ki as a looser hold on the target. In the case of B1, in the experiment with Papain [1], the binding result is given as “binds”. Besides, the Ki with Papain [2] stood at 60.8 nM.

B2: Clt-MpL fusion protein (clitocypin, (GGGGS)3 linker, MpL) (other)
chain: MASLEDGTYRLRAVTTSNPDPGVGGEYATVEGARQPVKAEPSTPPFFERQIWQVTRNSDGQSTIKYQGLNAPFEYGFSYDQLEQNAPVIAGDPKEYILQLVPSTTDVYIIRAPIQRVGVDVEVGVQGNNLVYKFFPVDGSGGDRPAWRFTREGGGGSGGGGSGGGGSMSTQVSSGQTYKITNVKAGTVIDLSGEDNKSIIGYPYHSGKNQQWTFNWTGKAWTLRSASSGSYLGIEGTPADGTRLVAVNDPFEWHIWRDEANENAFRIFVPFTNYNLDLSGYGDTTPGTPVQLWWTWEGLHQTWTIDRP
modifications: Clitocypin species taken from the candidate for the printed accession Q3Y9I6; MpL species is printed. (GGGGS)3 linker kept because it joins the two domains. MpL Met1 may be absent in the fusion. Dimeric forms were observed; copies given per chain.
In the experiment with Papain [2], B2 gave an inhibitory constant (Ki) of 161 nM.

B3: Recombinant cystatin C (CysC) (natural protein, human, UniProt P01034 27-146, looked up)
chain: SSPGKPPRLVGGPMDASVEEEGVRRALDFAVGEYNKASNDMYHSRALQVVRARKQIVAGVNYFLDVELGRTTCTKTQPNLDNCPFHDQPHLKRKAFCSFQIYAVPWQGTMTLSKSTCQDA
notes: Human cystatin C without its signal peptide of 26 amino acids; It was cloned through NdeI and BamHI into pET11a, so an initiator methionine is likely; also called unlinked CysC
Turning to B3, the binding result in the experiment with Papain [1] was “binds”. In the experiment with Papain [2], the inhibition constant Ki was found to be 85.5 nM.

B4: CysC-MpL fusion protein (cystatin C, (GGGGS)3 linker, MpL) (other)
chain: SSPGKPPRLVGGPMDASVEEEGVRRALDFAVGEYNKASNDMYHSRALQVVRARKQIVAGVNYFLDVELGRTTCTKTQPNLDNCPFHDQPHLKRKAFCSFQIYAVPWQGTMTLSKSTCQDAGGGGSGGGGSGGGGSMSTQVSSGQTYKITNVKAGTVIDLSGEDNKSIIGYPYHSGKNQQWTFNWTGKAWTLRSASSGSYLGIEGTPADGTRLVAVNDPFEWHIWRDEANENAFRIFVPFTNYNLDLSGYGDTTPGTPVQLWWTWEGLHQTWTIDRP
modifications: Cystatin C without its 26-residue signal peptide (stated for unlinked CysC, assumed for the fusion). (GGGGS)3 linker kept because it joins the two domains. Vector start Met not added; MpL Met1 may be absent in the fusion. Dimeric forms were observed; copies given per chain.
As for B4, the Ki in the experiment with Papain [2] is 41 nM.
